Legend:
[1] = biological target: T1, GST_Muc17ct_del2 (4244Ser-4390Leu) (human, UniProt Q685J3 4244-4390); experiment: ELISA, GST fusion immobilized at 1 µg/mL
T1 construct: not shown: GST encoded by vector pGEX4T-3 (Takara Bio)

[2] = biological target: T2, GST_Muc17ct_del3 (4115Thr-4243Gly) (human, UniProt Q685J3 4115-4243); experiment: ELISA, GST fusion immobilized at 1 µg/mL
T2 construct: not shown: GST encoded by vector pGEX4T-3 (Takara Bio)

[3] = biological target: T3, Muc17ct_mIgG2aFc (soluble human Muc17ct / mouse IgG2a Fc fusion protein) (human); experiment: ELISA screening of hybridoma supernatant on immobilized Muc17ct_mIgG2aFc
T3 sequence (chain, as listed by the source limits assumed): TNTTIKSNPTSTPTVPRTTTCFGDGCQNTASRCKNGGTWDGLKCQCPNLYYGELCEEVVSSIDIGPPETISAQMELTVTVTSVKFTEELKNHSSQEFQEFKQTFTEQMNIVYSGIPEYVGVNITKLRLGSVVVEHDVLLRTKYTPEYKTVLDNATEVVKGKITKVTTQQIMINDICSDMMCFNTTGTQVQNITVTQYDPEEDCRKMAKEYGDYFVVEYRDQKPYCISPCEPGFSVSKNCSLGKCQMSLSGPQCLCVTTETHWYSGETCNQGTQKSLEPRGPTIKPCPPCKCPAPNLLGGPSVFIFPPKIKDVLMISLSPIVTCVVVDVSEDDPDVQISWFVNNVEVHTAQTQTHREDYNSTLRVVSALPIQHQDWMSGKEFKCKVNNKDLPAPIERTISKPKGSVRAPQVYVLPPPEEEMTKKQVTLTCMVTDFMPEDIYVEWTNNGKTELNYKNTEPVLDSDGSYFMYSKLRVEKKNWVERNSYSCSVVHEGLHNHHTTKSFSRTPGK

[4] = biological target: Mucin 17 (Muc17) on AsPc1 pancreatic cancer cells (human, UniProt Q685J3 26-4493); experiment: flow cytometry on AsPc1 cells, FITC anti-human IgG detection
Method: Binding of the antibodies to a pancreatic cancer cell line AsPc1 was evaluated by flow cytometry. The cells were suspended in FACS buffer (1% FBS/PBS) at 5×10⁵ cells/mL and dispensed into Multiscreen-HV Filter Plates (Millipore), and the supernatant was removed by centrifugation. Anti-Muc17 antibody diluted to a suitable concentration was added and reacted for 30 minutes on ice. The cells were washed once with FACS buffer. FITC-labeled anti-human IgG antibody was added, and reacted for 30 minutes on ice. Then the supernatant was removed by centrifugation, the cell were suspended in 100 μL FACS buffer and applied to flow cytometry. Flow cytometry was run on FACS Calibur (Becton, Dickinson and Company). The viable cell population was gated with a forward scatter and side scatter histogram.

[5] = biological target: T3, Muc17ct_mIgG2aFc (soluble human Muc17ct …); experiment: ELISA, Muc17ct_mIgG2aFc coated at 1 µg/mL, anti-human kappa chain detection
Method: Muc17ct_mIgG2aFc protein was diluted with coating buffer (0.1 mol/L NaHCO₃ (pH 9.6), 0.02% (w/v) NaN₃) to give 1 μg/mL of Muc17ct_mIgG2aFc protein, and added to an immunoplate for overnight at 4° C. for coating. The plate was blocked with dilution buffer (50 mM Tris-HCl (pH 8.1), 1 mM MgCl₂, 150 mM NaCl, 0.05% (v/v) Tween20, 0.02% (w/v) NaN₃, 1% (w/v) BSA); then the anti-Muc17 antibody was added for 1 hour at room temperature. After washing with rinse buffer (0.05% (v/v) Tween20, PBS), an alkali phosphatase-labeled anti-human κ chain antibody (Sigma, CAT#A3813) was added for 1 hour at room temperature. After washing with rinse buffer, SIGMA104 (Sigma) diluted at 1 mg/mL in the substrate buffer (50 mM NaHCO₃ (pH 9.8), 10 mM MgCl₂) was added. After color development for 1 hour at room temperature, the absorbance (405 nm, reference 655 nm) was measured using a Benchmark Plus (BIO-RAD Laboratories, Inc.).

binding result [1]	binding result [2]	binding result [3]	binding result [4]	binding result [5]	Binder
no binding (tested: 3 µg/mL)	no binding (tested: 3 µg/mL)	binds			MQ155 (antibody, IgG1, V domains shown, Mouse monoclonal from hybridoma, IgG1 kappa; also called anti-Muc17 antibody MQ155) VH: QVQLQQPGAELVRPGASVKLSCKASGYTFTTYWMNWVKQRPEQGLEWIGRIDPYDSETHYNQKFKDKAILTVDKSSSTAYMQLSSLTSEDSAVYYCARGPYYGTNPWFPYWGQGTLVTVSS VL: DVQITQSPSYLAASPGETITINCRASKSISKYLAWYQEKPGKTNKLLIYSGSTLQSGIPSRFSGSGSGTDFTLTISSLEPEDFAMYYCQQHHEYPYTFGGGTKLEIK
			binds	binds	chi.MQ155 (anti-Muc17 mouse-human chimeric antibody MQ155) (antibody, human IgG1, kappa, V domains shown, Human IgG1 / kappa constant regions; also called chi.MQ155(DG); chi.MQ155(FTKO)) VH: QVQLQQPGAELVRPGASVKLSCKASGYTFTTYWMNWVKQRPEQGLEWIGRIDPYDSETHYNQKFKDKAILTVDKSSSTAYMQLSSLTSEDSAVYYCARGPYYGTNPWFPYWGQGTLVTVSS VL: DVQITQSPSYLAASPGETITINCRASKSISKYLAWYQEKPGKTNKLLIYSGSTLQSGIPSRFSGSGSGTDFTLTISSLEPEDFAMYYCQQHHEYPYTFGGGTKLEIKR
